From patent publication US20260043020A1, “BINDING MEMBERS WITH ALTERED DIVERSITY SCAFFOLD DOMAINS” (priority 2016, published 2026) come the findings set out here.

The target in the test is rat TFR (rat) (UniProt Q99376). Nature of the test: cell-based or functional assay.

Consider OX26-Fab, for which the % transcytosis after 6 h (in vitro rat BBB model) is 0.2%.
